Assay results published in the DeepSol protein solubility set.

Assay: soluble on expression in E. coli; label from the status in PepcDB or PDB records

Sequence	soluble on expression in E. coli
MSKSEKQQLAPWVEKYRPKVLADIVGNENIVERLKVIGHEGNVPNIVLSGPPGCGKTTSVWALARELLGDKVKEAVLELNASDERGIDVVRHRIKTFAQTKVTLPEGRHKIIILDEADSMTDGAQQALRRTMEMYTKTTRFALACNQSEKIIEPIQSRCALLRYTKLSPVQLLTRVKEVAKAEKVNYDDGGLEAILFTAQGDMRQALNNLQATVNAYELVNKENVLKVCDEPHPDLMIKMLHYCTDRKFFEASKIIHEFHRLGFSSDDIVSTLFRVVKTVELSKNVSEQLRMEYIRQIAMCHMRIVQGLTSKLQLSRLIADLCRVSAAATATSA	not soluble
MSKSTRSRRKKKSKGGDRSERKTNKSERKKKGAKSDIGKKKKKNETVSKDQTNTGVSTGAEGVEKKEKEQWSGDETAKKLVASGAFNTSTITSGFKELSNPKPSADMCSIFKNNPKKSRAPDWPIADNKLIKLSHAPGNFICAAKVDVPEFNRTMIVTQIPDVTVSANIEDFWRMIFQEEIVSIVIAVMPLECSVTLQQLFPLLSGTFSNHGKMFLNNKKVDSAVAMTAYTLEVLPDGCSNSLLSTVYHLHNWKQKQGLENVGELVTTVEKVLKTNENTVLMSMNGIGRAGTMLTLFTSMLSVQKSKEVNPKEILIKLRGERSGLVENADQFNTVHRAMALWFKNKCSDEEVQKKVVEFAPNLTTEAVERSSYEYLNSQHFLYPILLESMLHQHQMKQVLLKKVERSMERSKL	not soluble
MSKTRMEKLKTLKTIAETLNQGHDIKATLDEVLKELLSLTNLQSGWIFLIEEDGSYTLAADAYLPPALSRKEKVLMCEGECYCLTKFNNGGLRKAANIMNCKRIESAENLHCFDTEGITHHATVPLEDGDRRFGLLNVAAAGKTMFDEEELHLLESVAFQIGTAIQRMRLSEYQQK	not soluble
MSKVALIRCESYDYDAVKSAVKRGLDLIGGPHRFAAPNEKILLKPNLLSADPPERCSTTHPSVFKAVAEIFMEAGITNLSYGDSPGIHKPITAARKNGIEKAANELGIKLADFLEGKEVFFENAIQNKKFIIANGVLESDGIISLPKLKTHGFARMTGCVKNQFGCIPGPLKGEFHVRIPSIIDFSKMLVDLNVYLKPRLFVMDGIIAMEGNGPRGGTPRKINAILLSEDPIALDATVCRMINLNPEFVPTIVFGKEAGLGTYDENEIEILGDDIQSFITYDFDVRREPVKPFKPGGAIQFFRNFIVPKPYILKNKCIKCGVCVNACPVKPKAVDWHNGNKKEPPTYIYKRCIRCYCCQELCPESAIHLKVPFIRKFFYNPK	not soluble
MSLADERDQLKSIQADIAAKERAVRQKQQQRASLLAQLKKQEEAISEATRKLRETQNTLNQLNKQIDEMNASIAKLEQQKAAQERSLAAQLDAAFRQGEHTGIQLILSGEESQRGQRLQAYFGYLNQARQETIAQLKQTREEVAMQRAELEEKQSEQQTLLYEQRAQQAKLTQALSERKKTLAGLESSIQQGQQQLSELRANESRLRNSIARAEAAAKARAEREAREAQAVRDRQKEATRKGTTYKPTESEKSLMSRTGGLGAPRGQAFWPVRGPTLHRYGEQLQGELRWKGMVIGASEGTEVKAIADGRVILADWLQGYGLVVVVEHGKGDMSLYGYNQSALVSVGSQVRAGQPIALVGSSGGQGRPSLYFEIRRQGQAVNPQPWLGREGHHHHHH	soluble
MSLADQAIHWLFPTPVLQADLTPTADVALAMDQQLALFDREVFSHPEFSNRNNLTGDLLGKAGLDQLHRLEAFQWLNQQLAVHVDAFLRELLGPNHALEVHIQKAWPVVCARQGGTIEPHTHRNAQLSAVFYVRTEPDNPSGELEFQAADDYFSHVMAIPYRDAAVSGGVFAPQQHRLLLFPSDLRHQVTPYEGASPRYSVSYDLAITTAPGHGREMRMPHPMDWVPLCKPGPAEGHHHHHH	soluble
MSLAEKIKVLIVDDQVTSRLLLGDALQQLGFKQITAAGDGEQGMKIMAQNPHHLVISDFNMPKMDGLGLLQAVRANPATKKAAFIILTAQGDRALVQKAAALGANNVLAKPFTIEKMKAAIEAVFGALK	soluble
MSLAEPKWLQDLKEEDYIKEDFDATGKSRYTVEGIDKNDPDWLNKAAKKVHAAEGDDYVKLDAGLLTVNQINWMLRRAFGELTYVDDNNQFLWYNRPTDPNKKMLAKRTPDQVGDTMGAVHPDIRNVIPEAKKVIYALRNKIDGHDEVKMPVPNGNRHKLILHDYKRIEDDEGNYVGTYEWVQDIYPFVKYFCETTGQKLVDDPDATTGATYKRDEVDTGTGASKHEEHVEKKQEETDTSSGASEYEGHHHHHH	soluble
MSLAERKPIESWLTDMDGVLIHEGVPIPGADAFIKKLRESGKPFLVLTNNSIYTPRDLHARLRRMGLDVPVENIWTSALATAQFLGDQRPDGTAYVIGEAGLTTALHDIGYVLTDHEPDYVVLGETRTYSFEAMTQAVRLINKGARFICTNPDETGPSAEGPLPATGAVAALITKATGKKPYFAGKPNPLMMRTGLNTLGAHSETSAMIGDRMDTDVLAGMEAGMQTFLVLTGLTGPDQVENYPYRPSKVVDSIADLVDWIEGHHHHHH	soluble
MSLAFNVAFRLDAGAEIGLGHLMRCLAIADRLRAAGAECHFLCHDLPAHLLPLLHAHHHHSLTTQDDAGPLPSLQPDWLVFDHYQIDHVVEQELAVHCDQLLVIDDLADRPHYCQLLLDQGPLRTAADYQPLIPADCRLLLGTDYALLRPAYRQLARQQTSQWQGGLICFGGADPAGACLTTLNSLACLPWPRTIQWTLVAGGANPFWPELEQRVAELPELKITLLRQSDQMAQLMNQHDFTIGAAGGMTWERACLGLPTLAVPIVDNQEGHHHHHH	not soluble
MSLAGGYVIDTTENTFQAMVQTSATFPILLFLWVPTDDRLFAMARALGDAVNKLNGQIQLSRIDIASNPSIAQAFQIQGAPALFALIGGRPMPILQGLPSDEELQQITDVVVPKLIAAAQQAGVTGTAPYSGDPDSDAANSASAGSVQDQVPPEHQEAYMLAQQGDYAGAAAAYEKVLEADPNDTRAARERAKALLLARSANADVRVVRAAAADKPDDVDAQLAVADIDMIGGQIQDAFDRLLDFVAAGHKADIEPVRQRLLEYFTIPEPTDERLKRARRRLATLMYEGHHHHHH	soluble
MSLAGTFAIAPTPFHDDGKIDDVSIDRLTDFYAEVGCEGVTVLGILGEAPKLDAAEAEAVATRFIKRAKSMQVIVGVSAPGFAAMRRLARLSMDAGAAGVMIAPPPSLRTDEQITTYFRQATEAIGDDVPWVLQDYPLTLSVVMTPKVIRQIVMDSASCVMLKHEDWPGLEKITTLRGFQKDGSLRPLSILCGNGGLFLDFEMERGADGAMTGYCFPDMLVDVVKLSKAGQRDLAHNLFDAHLPLIRYEHQQGVGLSVRKYVLKKRGLLSSSAQRKPGASLTDTAREEVDYLLSRLARVEGHHHHHH	not soluble
MSLAGVGGRPPPSVGSVVVADTTMFTDAKLREVLGARSLEEAARIMARILARASRMGLTVYITPSVRAEIERFMLGNGVHPTTIARLMAWVRVKPPTTHELRLPAAMFRRYVETVRARLDKGLRVAEDHVRRALRSRDEEGDIVRSLREKYREYTRKGMLDSVEDVDTLLLALELGAAIVTSDEGLRRAAEDLGLTVLTPVELLEYILALEEEVKSVEEEGHHHHHH	not soluble
MSLAKPTDIRIRDVRISAEHINYRTPIKFGGRVVNDVTLLNVALDVETADGRRGSGFGSMPMGNVWAWPTSTTSGDATLQAMVDIGTAIAEAAPQLDLSGHPLELTAAAHSQYGSIASTIAHKANITEAVPKLATLVAASPVEAAIHDAYGKALGLNSYNVLGADFANTDLASYLSPEFAGEYLDRYTLRTPQPQMPLYHLIGALDPLDQDELQNPVGDGLPETLGDWITADGLTHLKIKLNGDNLDWDVARVAKIDAVAIDAQAKRGCKAWQYSLDFNERCPNVQYILDFLAKLSESSPEALDRVQYIEQPTSRDLRANPENRMHAAAKIKPVVIDESLIDYESLLLAREQGYSGVALKACKGQSEALLMGAAAQKFGMFLCVQDLTCPGASFLHSASLAARMPTIAAIEGNGRQYCPAGNAEWAKRYPSMFDITQGYVGTAVLTEPGLGYEGHHHHHH	not soluble
MSLAKSNDKTVTMYSIGPRLKAFSDWLLKTMAAGNLGVIFPAASREYAPLVEELWRDAAIQATYKRRSELGLLPSVANYFLERAIDVLTPDYEPSDVDILYAEGVTSSSGLACLDFSFPQTASEENLDPSDHHDSLLRYQLIRVPSRGLGENCKWIDMFEDVGMVVFVVSMSDYDQVSEDGTNKMLLTKKLFESIITHPIFENMDFLLILNKYDLLEEKVERVPLARCEWFQDFNPVVSRHRGSNNGNPTLGQLAFHFMAVKFKRFYSSLTGKKLFVSSSKSLDPNSVDSSLKLAMEILKWSEERTNICMSEYSMYSTEGHHHHHH	not soluble
MSLAKYFDPHIHMVSRTTDDYQNMAAAGITGVIEPAFWQGQARTSVGSFIDYFDTLLGWERFRASMFGIHHFCTIGLNPKEANDLSVANEVLEILPRYLVKDGVVAVGEIGYDDITPEEDRFLAAQLELARQFNLPVLVHTPHRDKIGGTKRTLAVIREVGIAENLVIIDHLNELTLPLVLDSDCWRGHSIYPNTKMSEQRMVALLQEYGSEKMVVNSAADWGISDPLKVPKTGQAMLAAGFSEAQVEQVLFHNPVDFFAQSGQLDKQLVSTEGHHHHHH	not soluble
MSLALIVHKYGGTSVGSPERIKNVAKRVAKARAEGHDIVVVVSAMSGETNRLVALAHEMQEHPDPRELDVVLATGEQVTIGLLAMALKDIGVDAKSYTGWQVALKTDTAHTKARIESIDDEKMRADLTAGKVVIVAGFQGISSEGDISTLGRGGSDTSAVALAAALKADECQIYTDVDGVYTTDPRVVPEARRMDTVTFEEMIELASLGSKVLQIRSVEFAGKYKVRLRVLSSLQDGGNGTLITFEEDDNMERAAVTGIAFDKNQARINVRGVPDKPGVAYQILGAVADANIEVDMIIQNVGSEGTTDFSFTVPRGDYKQTLEILSERQDSIGAASIDGDDTVCKVSAVGLGMRSHVGVAAKIFRTLAEEGINIQMISTSEIKVSVLIDEKYMELATRVLHKAFNLGEGHHHHHH	soluble
MSLAMALFQSAPHSLCILRLSAIGDVCNTIAAVQAIQRQWPQTRITWVTGKLEAELIQSLPDIQVIVFDKKLGWRAYTQLWQQLKSERFDALLHMQYAFRASIATLGIKARYKLGFDAARSQDFQTWFTNVKVPSPDKMHVLDGLLAFVEHLGIRDIEPKWSLTCQPDDLTWAEAQFQPEQPRLVVVPGASKAYKNWTAEGYAAVIEHAQQQGWQVILAGSPAQVERDLAAQVEQALAHPVLNLVGKSTLQQMLALLAKADLVIAPDTGPAHMANAMHTPIIGLYAHHNPERTGPYHYRHYVVSAYQEALLAETGKMPQQVDWRTRVKDPNAMQRITAQQVIAMFERAAADIMATQVNDEGHHHHHH	soluble
